Reference: patent US12686723 (SHANGHAI ACEMAB, dated 2026)
Where a chain is given by its changes, count along the chain named. Each block holds one binder with its values, some of them ahead of it.

Key:
[1] = target: T1, commercial recombinant human BCMA protein (Fc tag, Cat. No. CS79, Novoprotein) (human, UniProt Q02223 1-54); experiment: ELISA, BCMA-Fc (CS79) coated on plate, hybridoma supernatant diluted 1:50, anti-mouse IgG-HRP
T1 construct: Bought reagent; also called Human recombinant BCMA protein; BCMA antigen (Novoprotein cat: CS79); not shown: Fc tag
T1 sequence (looked up): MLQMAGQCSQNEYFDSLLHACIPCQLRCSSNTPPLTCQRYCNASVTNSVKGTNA
Procedure: Dilute BCMA antigen (Novoprotein cat: CS79) with PBS to 0.5 ng/μl; add 100 μl/well of antigen to a 96-well flat-bottom ELISA plate (Maxisorp), seal with cling film, and store at 4° C. overnight; pour off the antigen the next day. After that, wash with PBS (200 μl/well), pour off the PBS, pat dry on absorbent paper and add 200 μl of blocking solution to each well and block at room temperature for 2 hours. After blocking, pour off the blocking solution and pat dry on absorbent paper; add 50 μl of HRP-conjugated goat anti-mouse IgG secondary antibody diluted in diluent, place at room temperature for 1 hour, then pour off the liquid and wash 5 times with washing solution (200 μl/well), finally pour off the washing solution and pat dry on absorbent paper; add 50 μl/well of TMB-hydrogen peroxide urea solution substrate solution and place it at room temperature for 3-5 minutes, add 50 μl/well of 0.25M sulfuric acid to stop the reaction, the optical density was measured by obtaining the absorbance with a 450 nm filter under a multifunctional microplate reader.

[2] = target: T2, human BCMA antigen (6His tag, product number CC28, Novoprotein) (human, UniProt Q02223 1-54); experiment: SPR, Biacore T200, BCMA-6His on chip, antibody as analyte
T2 construct: Bought reagent; not shown: 6His tag
T2 sequence (looked up): T1 sequence (looked up)
Excerpt: Example 8: Affinity Analysis of Anti-Human BCMA Monoclonal Antibody Binding to Human BCMA The kit, consumables and instruments used in this example were purchased from GE Healthcare; According to the instructions provided, human BCMA antigen (6His tag, product number CC28, Novoprotein) is conjugated to the chip surface, and then HBS-EP+ buffer solution is double-diluted to prepare different concentrations of the antibody to be analyzed, and meanwhile set the 0 concentration point and the quality control concentration point; According to the manufacturer's standard setting procedure of Biacore T200, the flow cell that captures ligand is used as the detection channel, the flow cell of un-captured ligand as the reference channel, and the HBS-EP+ buffer solution as the mobile phase, and different concentrations of the antibody solution to be analyzed are injected respectively; The SPR signal is collected by the Biacore T200 Control software, and then the data is processed by the Biacore T200 Evaluation analysis software; Finally, the Ka, Kd and KD values are calculated for the kinetic analysis or steady-state analysis of the obtained kinetic curves, and the results are shown in Table. 2.

B2: anti-human BCMA monoclonal antibody 23C4 (antibody, human IgG1, kappa, V domains shown)
VH: EVQLVESGGGLVQPGRSLRLSCAASGFTFADHAMHWVRQAPGKGLEWVSGISWNSDHIGYADSVKGRFTISRDNAKNSLYLQMNSLRPEDTALYYCAKDIFSPTGDGYWGQGTLVTVSS
VL: DIQMTQSPSSLSASVGDRVTITCRASQDIRNNLGWFQQKPGKTPKRLIYAASSLQSGVPSRFSGSGSGTEFTLIISSLQPEDFATYYCLHHNSYPPTFGQGTKVEIKR
notes: Tested as hybridoma supernatant (ELISA) or Protein G-purified hybridoma antibody (SPR); constant region of the tested hybridoma material is uncertain (anti-mouse IgG secondary used)
OD450 [1]: 2.86
Kd [2]: 146 pM
koff [2]: 7.01e-05 s⁻¹
kon [2]: 481000 M⁻¹ s⁻¹

B3: anti-human BCMA monoclonal antibody 27A7 (antibody, human IgG1, kappa, V domains shown)
VH: B2 VH with A30D, D56V, P88A, G107D
VL: B2 VL with I74T
notes: as for B2
OD450 [1]: 2.59
Kd [2]: 11.7 pM
koff [2]: 7.22e-05 s⁻¹
kon [2]: 6.18e+06 M⁻¹ s⁻¹

B6: anti-human BCMA monoclonal antibody 20A2 (antibody, human IgG1, kappa, V domains shown)
VH: QIQLVQSGAEVKKPGASVKVSCKASGYTFTAYYLHWVRQSPGHGLEWMGRIYPNSGDTNYAQKFQGRVTMTRDTSINTAYMELSRLRSDDTALYYCARGFNWNYEGGFDIWGQGTMVTVSS
VL: DVVMTQSPLSLSVTLGQPASISCRSGQSLVYSDGNTYLNWFQQRPGQSPRRLIYKLSSRDSGVPDRFSGSGSGTDFTLKISRMEAEDVGVYYCMQRTHWPPTFGQGTKVEIKR
notes: as for B2
Kd [2]: 65.6 pM
koff [2]: 5.29e-05 s⁻¹
kon [2]: 807000 M⁻¹ s⁻¹

B7: anti-human BCMA monoclonal antibody 20A9 (antibody, human IgG1, kappa, V domains shown)
VH: QVQLVQSGAEVKKPGASAKVSCKASGYTFTSYAMQWVRQAPGQRLEWMGWINAGNGNIKYSQKFQGRVTITRDTSASTAYMELSSLRSEDTAVYYCARGGRLELDVYYYFYYMDVWGKGTTVTVSS
VL: DIVMSQSPDSLAVSLGERTTINCKSSQSVLHSSQNKNYLAWYQQKPGQPPNPLIHWASTRESGVPDRFSGSGSGTDFTLTISSLQAEDVAVYYCQQYYRVPFTFGPGTKVDIKR
notes: as for B2
OD450 [1]: 2.2
Kd [2]: 40.9 pM
koff [2]: 2.34e-05 s⁻¹
kon [2]: 573000 M⁻¹ s⁻¹

B9: anti-human BCMA monoclonal antibody 11B10 (antibody, human IgG1, kappa, V domains shown)
VH: QVQLVQSGAEVKKPGASVKVSCKASGYTFTSYAMHWVRQAPGQRLEWMGWINTGNGNTKYSQKFQGRVTITRDTSASTAYMELSSLRSEDTAVYYCARGGSITGNIFYYYYYMDVWGKGTTVTVAS
VL: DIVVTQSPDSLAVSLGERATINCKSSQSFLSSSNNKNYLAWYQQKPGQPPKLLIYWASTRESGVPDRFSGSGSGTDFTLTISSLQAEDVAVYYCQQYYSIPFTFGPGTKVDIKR
notes: as for B2
OD450 [1]: 2.55
Kd [2]: 253 pM
koff [2]: 0.000269 s⁻¹
kon [2]: 1.06e+06 M⁻¹ s⁻¹

B10: anti-human BCMA monoclonal antibody 15A7 (antibody, human IgG1, kappa, V domains shown)
VH: EVQLVESGGGLVQPGGSLRLSCEASGFTFDDCAMHWVRQTPGKGLEWVSGISWNSDTMGYADSVKGRFIISRDNAKNSLYLQMNSLRVEDTALYHCTRVRAAVFDYWGQGVLVTVSS
VL: DIHMTQSPSSLSASVGDRVTITCRASQSISSYLNWFQQKPGKAPTVLIYAASSLQSGVSSRFSGRGSGADFTLTISSLQPEDFASYFCQQSFSPLYIFGQGTKVEIKR
notes: as for B2
OD450 [1]: 2.12
Kd [2]: 125 pM
koff [2]: 6.02e-05 s⁻¹
kon [2]: 480000 M⁻¹ s⁻¹

B11: anti-human BCMA monoclonal antibody 11G1 (antibody, V domains shown)
VH: EVQLVESGGGLVQPGRSLRLSCEASGFTFDDYAMHWVRQPPGKGLEWVSGISWNSDNIGYADSVKGRFTISRDNAKNSLYLQMNSLRAEDTALYYCAKIQSGSSFDYWGQGTLVTVSS
VL: DIQMTQSPSSLSASVGDRVTITCRASQSIINFLNWYQQKPGKAPKLLIYGASNLQSGVPSRFSGSGSGTDFTLTISSLQPEDFATYCCQQSSSIPLTFGGGTKVEIKR
notes: as for B2
OD450 [1]: 2.71
Kd [2]: 34.5 pM
koff [2]: 1.63e-05 s⁻¹
kon [2]: 472000 M⁻¹ s⁻¹

Further binders by falling Kd [2], results first:

OD450 [1]: 2.49
Kd [2]: 88.5 pM
koff [2]: 4.28e-05 s⁻¹
kon [2]: 483000 M⁻¹ s⁻¹
B8: anti-human BCMA monoclonal antibody 15H6 (antibody, human IgG1, kappa, V domains shown)
VH: B7 VH with I58T, V106I
VL: B7 VL
notes: as for B2

OD450 [1]: 2.3
Kd [2]: 50.4 pM
koff [2]: 2.57e-05 s⁻¹
kon [2]: 510000 M⁻¹ s⁻¹
B4: anti-human BCMA monoclonal antibody 7E11 (antibody, human IgG1, kappa, V domains shown)
VH: EVQLVESGGGLVQPGGSLRLSCAASGFTFSYYDMHWVRQGTGKGLEWVSGIGTSGDTYYPDSVKGRFTISRENAKNSLNLQMNSLRDGDTAMYYCARGPYYYNSSGYYSYDALDIWGQGTMVTVTS
VL: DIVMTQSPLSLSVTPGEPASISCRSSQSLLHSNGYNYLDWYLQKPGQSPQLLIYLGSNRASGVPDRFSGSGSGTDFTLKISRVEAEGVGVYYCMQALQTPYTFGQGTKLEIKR
notes: Tested as hybridoma supernatant (ELISA) or Protein G-purified hybridoma antibody (SPR)

OD450 [1]: 3
Kd [2]: 48.2 pM
koff [2]: 2.78e-05 s⁻¹
kon [2]: 576000 M⁻¹ s⁻¹
B5: anti-human BCMA monoclonal antibody 31F5 (antibody, V domains shown)
VH: EVQLVESGGGLVQPGRSLRLSCAASGFTFDDYAMHWVRQAPGKGLEWVSGISWNSDNIAYADSVKGRFTISRDNAENSLYLQMNSLRTEDTAIYYCAKVAAATFDYRGQGTLVTVSS
VL: DIQMTQSPSSLSASVGDRVTITCRASQSISSYLNWYQQKPGKAPKLLIFAASSLQSGVPSRFSGSGSGTDFTLTISSLQPEDFATYSCQQSFSIPFTFGPGTKVDIKR
notes: as for B2

OD450 [1]: 2.4
Kd [2]: 47.7 pM
koff [2]: 2.43e-05 s⁻¹
kon [2]: 510000 M⁻¹ s⁻¹
B1: anti-human BCMA monoclonal antibody 18D10 (antibody, human IgG1, kappa, V domains shown)
VH: EVRLVESGGGLVQPGRSLRLSCAASGFTSNDYAMHWVRQAPGRGLEWVSGISWNSDSIGYADSVKGRFTISRDNAKNSLYLQMNSLRTEDTALYYCATVVSAYFDYWGQGTLVTVSS
VL: DIQMTQSPSSLSASVGDRVTITCRTSQSISTYLNWYQQKPGKAPKLLIYAASSLKSGVPSRFSGSGSGTDFTLTISSLQPEDFATYFCQGSYIIPLTFGGGTRVEIKR
notes: as for B2
